Drawing on patent US20230365662A1, this text covers OD450nm and Ratio OD(Variant)/OD(WT) for 19 molecules.

Where “and” joins values, the source holds several entries; their conditions need not be identical. Identical values can stand only once.

The target of this assay is HRgpA-6H (Porphyromonas gingivalis) (UniProt P28784). The experiment in a line: ELISA, FASEBA Fab on coated HRgpA-6H.
Chain of UniProt P28784 (P28784 228-991): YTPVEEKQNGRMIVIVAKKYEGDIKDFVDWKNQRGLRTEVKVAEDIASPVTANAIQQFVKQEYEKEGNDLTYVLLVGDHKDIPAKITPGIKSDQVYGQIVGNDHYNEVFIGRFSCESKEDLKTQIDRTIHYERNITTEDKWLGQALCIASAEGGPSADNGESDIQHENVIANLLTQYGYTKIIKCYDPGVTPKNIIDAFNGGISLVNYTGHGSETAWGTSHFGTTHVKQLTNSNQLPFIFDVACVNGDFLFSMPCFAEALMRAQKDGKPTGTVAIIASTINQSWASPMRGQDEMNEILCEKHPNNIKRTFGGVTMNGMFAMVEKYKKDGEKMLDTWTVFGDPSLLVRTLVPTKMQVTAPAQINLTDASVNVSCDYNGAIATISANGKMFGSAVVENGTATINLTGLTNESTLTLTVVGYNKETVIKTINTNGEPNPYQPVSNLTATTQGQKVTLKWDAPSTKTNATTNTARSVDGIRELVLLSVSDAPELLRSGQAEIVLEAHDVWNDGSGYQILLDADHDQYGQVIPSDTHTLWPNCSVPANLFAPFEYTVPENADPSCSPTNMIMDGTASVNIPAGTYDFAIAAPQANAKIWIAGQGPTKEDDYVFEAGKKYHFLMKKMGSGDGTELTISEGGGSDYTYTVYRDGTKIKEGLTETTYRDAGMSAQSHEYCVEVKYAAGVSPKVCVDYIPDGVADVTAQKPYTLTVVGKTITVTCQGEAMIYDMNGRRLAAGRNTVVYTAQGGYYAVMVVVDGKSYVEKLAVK

B1: KB001 mouse Fab VL T24L (Fab, V domains shown)
VH: EVQLKQSGPGLVAPSQSLSITCTVSGFSLSIYSVHWVRQPPGKGLEWLGMIWGGGSSDYNSALKSRLSISKDNSKSQVFLKMNSLQTDDTAMYYCARNGNFYAMDYWGQGTSVTVSS
VL: QIVLTQSPAIMSASLGERVTMTCLASSSVSSSFLHWYQQKPGSSPQLWIYSTSNLASGVPARFSGSGSGTSYSLTISSMEAEDAATYYCHQYHHSPYIYTFGGGTKLEIK
On to B1, for which the OD450nm was 0.753 and 0.752 and 0.667; the Ratio OD(Variant)/OD(WT) is 0.979 and 0.978 and 0.867.

B2: KB001 mouse Fab VL A25G (Fab, V domains shown)
VH: EVQLKQSGPGLVAPSQSLSITCTVSGFSLSIYSVHWVRQPPGKGLEWLGMIWGGGSSDYNSALKSRLSISKDNSKSQVFLKMNSLQTDDTAMYYCARNGNFYAMDYWGQGTSVTVSS
VL: QIVLTQSPAIMSASLGERVTMTCTGSSSVSSSFLHWYQQKPGSSPQLWIYSTSNLASGVPARFSGSGSGTSYSLTISSMEAEDAATYYCHQYHHSPYIYTFGGGTKLEIK
In the case of B2, the OD450nm was 0.668 and 0.699 and 0.673; the Ratio OD(Variant)/OD(WT) is 0.853 and 0.893 and 0.86.

B3: KB001 mouse Fab VL A25E (Fab, V domains shown)
VH: EVQLKQSGPGLVAPSQSLSITCTVSGFSLSIYSVHWVRQPPGKGLEWLGMIWGGGSSDYNSALKSRLSISKDNSKSQVFLKMNSLQTDDTAMYYCARNGNFYAMDYWGQGTSVTVSS
VL: QIVLTQSPAIMSASLGERVTMTCTESSSVSSSFLHWYQQKPGSSPQLWIYSTSNLASGVPARFSGSGSGTSYSLTISSMEAEDAATYYCHQYHHSPYIYTFGGGTKLEIK
B3: the OD450nm was 0.655 and the Ratio OD(Variant)/OD(WT) was found to be 0.837.

B4: KB001 mouse Fab VL T24G (Fab, V domains shown)
VH: EVQLKQSGPGLVAPSQSLSITCTVSGFSLSIYSVHWVRQPPGKGLEWLGMIWGGGSSDYNSALKSRLSISKDNSKSQVFLKMNSLQTDDTAMYYCARNGNFYAMDYWGQGTSVTVSS
VL: QIVLTQSPAIMSASLGERVTMTCGASSSVSSSFLHWYQQKPGSSPQLWIYSTSNLASGVPARFSGSGSGTSYSLTISSMEAEDAATYYCHQYHHSPYIYTFGGGTKLEIK
Take B4: the OD450nm was 0.686 and 0.735; the Ratio OD(Variant)/OD(WT) was 0.892 and 0.956.

B5: KB001 mouse Fab VL S26G (Fab, V domains shown)
VH: EVQLKQSGPGLVAPSQSLSITCTVSGFSLSIYSVHWVRQPPGKGLEWLGMIWGGGSSDYNSALKSRLSISKDNSKSQVFLKMNSLQTDDTAMYYCARNGNFYAMDYWGQGTSVTVSS
VL: QIVLTQSPAIMSASLGERVTMTCTAGSSVSSSFLHWYQQKPGSSPQLWIYSTSNLASGVPARFSGSGSGTSYSLTISSMEAEDAATYYCHQYHHSPYIYTFGGGTKLEIK
For the molecule B5, the OD450nm was 0.73 and the Ratio OD(Variant)/OD(WT) was determined as 0.932.

B6: KB001 mouse Fab VL S26P (Fab, V domains shown)
VH: EVQLKQSGPGLVAPSQSLSITCTVSGFSLSIYSVHWVRQPPGKGLEWLGMIWGGGSSDYNSALKSRLSISKDNSKSQVFLKMNSLQTDDTAMYYCARNGNFYAMDYWGQGTSVTVSS
VL: QIVLTQSPAIMSASLGERVTMTCTAPSSVSSSFLHWYQQKPGSSPQLWIYSTSNLASGVPARFSGSGSGTSYSLTISSMEAEDAATYYCHQYHHSPYIYTFGGGTKLEIK
B6: the OD450nm was 0.644 and 0.677; the Ratio OD(Variant)/OD(WT) was 0.822 and 0.865.

B7: KB001 mouse Fab VL A25Y (Fab, V domains shown)
VH: EVQLKQSGPGLVAPSQSLSITCTVSGFSLSIYSVHWVRQPPGKGLEWLGMIWGGGSSDYNSALKSRLSISKDNSKSQVFLKMNSLQTDDTAMYYCARNGNFYAMDYWGQGTSVTVSS
VL: QIVLTQSPAIMSASLGERVTMTCTYSSSVSSSFLHWYQQKPGSSPQLWIYSTSNLASGVPARFSGSGSGTSYSLTISSMEAEDAATYYCHQYHHSPYIYTFGGGTKLEIK
Regarding B7, the OD450nm was 0.755 and 0.757; the Ratio OD(Variant)/OD(WT) was 0.964 and 0.967.

B8: KB001 mouse Fab VL S27H (Fab, V domains shown)
VH: EVQLKQSGPGLVAPSQSLSITCTVSGFSLSIYSVHWVRQPPGKGLEWLGMIWGGGSSDYNSALKSRLSISKDNSKSQVFLKMNSLQTDDTAMYYCARNGNFYAMDYWGQGTSVTVSS
VL: QIVLTQSPAIMSASLGERVTMTCTASHSVSSSFLHWYQQKPGSSPQLWIYSTSNLASGVPARFSGSGSGTSYSLTISSMEAEDAATYYCHQYHHSPYIYTFGGGTKLEIK
For B8, the OD450nm is 0.664 and 0.63 and 0.726; the Ratio OD(Variant)/OD(WT) is 0.885 and 0.839 and 0.967.

B9: KB001 mouse Fab VL A25V (Fab, V domains shown)
VH: EVQLKQSGPGLVAPSQSLSITCTVSGFSLSIYSVHWVRQPPGKGLEWLGMIWGGGSSDYNSALKSRLSISKDNSKSQVFLKMNSLQTDDTAMYYCARNGNFYAMDYWGQGTSVTVSS
VL: QIVLTQSPAIMSASLGERVTMTCTVSSSVSSSFLHWYQQKPGSSPQLWIYSTSNLASGVPARFSGSGSGTSYSLTISSMEAEDAATYYCHQYHHSPYIYTFGGGTKLEIK
B9: the OD450nm was found to be 0.768 and the Ratio OD(Variant)/OD(WT) stood at 0.981.

B10: KB001 mouse Fab VL A25P (Fab, V domains shown)
VH: EVQLKQSGPGLVAPSQSLSITCTVSGFSLSIYSVHWVRQPPGKGLEWLGMIWGGGSSDYNSALKSRLSISKDNSKSQVFLKMNSLQTDDTAMYYCARNGNFYAMDYWGQGTSVTVSS
VL: QIVLTQSPAIMSASLGERVTMTCTPSSSVSSSFLHWYQQKPGSSPQLWIYSTSNLASGVPARFSGSGSGTSYSLTISSMEAEDAATYYCHQYHHSPYIYTFGGGTKLEIK
On to B10, for which the OD450nm was 0.742 and 0.766 and 0.749; the Ratio OD(Variant)/OD(WT) is 0.948 and 0.978 and 0.957.

B11: KB001 mouse Fab VL T24Q (Fab, V domains shown)
VH: EVQLKQSGPGLVAPSQSLSITCTVSGFSLSIYSVHWVRQPPGKGLEWLGMIWGGGSSDYNSALKSRLSISKDNSKSQVFLKMNSLQTDDTAMYYCARNGNFYAMDYWGQGTSVTVSS
VL: QIVLTQSPAIMSASLGERVTMTCQASSSVSSSFLHWYQQKPGSSPQLWIYSTSNLASGVPARFSGSGSGTSYSLTISSMEAEDAATYYCHQYHHSPYIYTFGGGTKLEIK
As for B11, the OD450nm worked out at 0.765 and the Ratio OD(Variant)/OD(WT) turned out to be 0.995.

B12: KB001 mouse Fab VL T24N/G67D (Fab, V domains shown)
VH: EVQLKQSGPGLVAPSQSLSITCTVSGFSLSIYSVHWVRQPPGKGLEWLGMIWGGGSSDYNSALKSRLSISKDNSKSQVFLKMNSLQTDDTAMYYCARNGNFYAMDYWGQGTSVTVSS
VL: QIVLTQSPAIMSASLGERVTMTCNASSSVSSSFLHWYQQKPGSSPQLWIYSTSNLASGVPARFSGSDSGTSYSLTISSMEAEDAATYYCHQYHHSPYIYTFGGGTKLEIK
As for B12, the OD450nm was determined as 0.755 and the Ratio OD(Variant)/OD(WT) came out at 0.982.

B13: KB001 mouse Fab VL T24N (Fab, V domains shown)
VH: EVQLKQSGPGLVAPSQSLSITCTVSGFSLSIYSVHWVRQPPGKGLEWLGMIWGGGSSDYNSALKSRLSISKDNSKSQVFLKMNSLQTDDTAMYYCARNGNFYAMDYWGQGTSVTVSS
VL: QIVLTQSPAIMSASLGERVTMTCNASSSVSSSFLHWYQQKPGSSPQLWIYSTSNLASGVPARFSGSGSGTSYSLTISSMEAEDAATYYCHQYHHSPYIYTFGGGTKLEIK
B13: the OD450nm is 0.715 and 0.8; the Ratio OD(Variant)/OD(WT) was 0.93 and 1.04.

B14: KB001 mouse Fab VL S27L (Fab, V domains shown)
VH: EVQLKQSGPGLVAPSQSLSITCTVSGFSLSIYSVHWVRQPPGKGLEWLGMIWGGGSSDYNSALKSRLSISKDNSKSQVFLKMNSLQTDDTAMYYCARNGNFYAMDYWGQGTSVTVSS
VL: QIVLTQSPAIMSASLGERVTMTCTASLSVSSSFLHWYQQKPGSSPQLWIYSTSNLASGVPARFSGSGSGTSYSLTISSMEAEDAATYYCHQYHHSPYIYTFGGGTKLEIK
As for B14, the OD450nm came out at 0.649 and the Ratio OD(Variant)/OD(WT) turned out to be 0.865.

B15: KB001 mouse Fab VL S27N (Fab, V domains shown)
VH: EVQLKQSGPGLVAPSQSLSITCTVSGFSLSIYSVHWVRQPPGKGLEWLGMIWGGGSSDYNSALKSRLSISKDNSKSQVFLKMNSLQTDDTAMYYCARNGNFYAMDYWGQGTSVTVSS
VL: QIVLTQSPAIMSASLGERVTMTCTASNSVSSSFLHWYQQKPGSSPQLWIYSTSNLASGVPARFSGSGSGTSYSLTISSMEAEDAATYYCHQYHHSPYIYTFGGGTKLEIK
Take B15: the OD450nm was 0.675 and 0.724 and 0.64; the Ratio OD(Variant)/OD(WT) is 0.899 and 0.965 and 0.853.

B16: KB001 mouse Fab VL S27Y (Fab, V domains shown)
VH: EVQLKQSGPGLVAPSQSLSITCTVSGFSLSIYSVHWVRQPPGKGLEWLGMIWGGGSSDYNSALKSRLSISKDNSKSQVFLKMNSLQTDDTAMYYCARNGNFYAMDYWGQGTSVTVSS
VL: QIVLTQSPAIMSASLGERVTMTCTASYSVSSSFLHWYQQKPGSSPQLWIYSTSNLASGVPARFSGSGSGTSYSLTISSMEAEDAATYYCHQYHHSPYIYTFGGGTKLEIK
As for B16, the OD450nm was determined as 0.617 and the Ratio OD(Variant)/OD(WT) was 0.822.

B17: KB001 mouse Fab VL S26T (Fab, V domains shown)
VH: EVQLKQSGPGLVAPSQSLSITCTVSGFSLSIYSVHWVRQPPGKGLEWLGMIWGGGSSDYNSALKSRLSISKDNSKSQVFLKMNSLQTDDTAMYYCARNGNFYAMDYWGQGTSVTVSS
VL: QIVLTQSPAIMSASLGERVTMTCTATSSVSSSFLHWYQQKPGSSPQLWIYSTSNLASGVPARFSGSGSGTSYSLTISSMEAEDAATYYCHQYHHSPYIYTFGGGTKLEIK
For the molecule B17, the OD450nm was 0.761 and the Ratio OD(Variant)/OD(WT) amounted to 0.972.

B18: KB001 mouse Fab VL S27V (Fab, V domains shown)
VH: EVQLKQSGPGLVAPSQSLSITCTVSGFSLSIYSVHWVRQPPGKGLEWLGMIWGGGSSDYNSALKSRLSISKDNSKSQVFLKMNSLQTDDTAMYYCARNGNFYAMDYWGQGTSVTVSS
VL: QIVLTQSPAIMSASLGERVTMTCTASVSVSSSFLHWYQQKPGSSPQLWIYSTSNLASGVPARFSGSGSGTSYSLTISSMEAEDAATYYCHQYHHSPYIYTFGGGTKLEIK
Take B18: the OD450nm was 0.645 and 0.646; the Ratio OD(Variant)/OD(WT) was 0.859 and 0.861.

B19: KB001 mouse Fab VL T24A (Fab, V domains shown)
VH: EVQLKQSGPGLVAPSQSLSITCTVSGFSLSIYSVHWVRQPPGKGLEWLGMIWGGGSSDYNSALKSRLSISKDNSKSQVFLKMNSLQTDDTAMYYCARNGNFYAMDYWGQGTSVTVSS
VL: QIVLTQSPAIMSASLGERVTMTCAASSSVSSSFLHWYQQKPGSSPQLWIYSTSNLASGVPARFSGSGSGTSYSLTISSMEAEDAATYYCHQYHHSPYIYTFGGGTKLEIK
B19: the OD450nm turned out to be 0.757 and the Ratio OD(Variant)/OD(WT) worked out at 0.984.
